Broadly, the Kd is the constant that tells how readily two partners part at equilibrium.

B1: Recombinant human MANF protein (natural protein, UniProt P55145 25-182, looked up)
chain: LRPGDCEVCISYLGRFYQDLKDRDVTFSPATIENELIKFCREARGKENRLCYYIGATDDAATKIINEVSKPLAHHIPVEKICEKLKKKDSQICELKYDKQIDLSTVDLKKLRVKELKKILDDWGETCKGCAEKSDYIRKINELMPKYAPKAASARTDL
notes: MANF, human, mature protein secreted from CHO-derived cells; also called wild-type MANF; FL-MANF; source: CHO-derived cell line (QMCF technology), purified from culture media (Q FF, SP HP, SEC)

What all share (conditions): both partners purified
In assay [1] the target is T1, Recombinant hamster GRP78 protein (hamster, UniProt G3I8R9 19-654, RED-tris-NTA dye held on the His-tag).
T1 construct: GRP78 (BiP), hamster; also called BiP; full-length GRP78; not shown: His-tag, N-terminal, kept
T1 sequence (G3I8R9 19-654): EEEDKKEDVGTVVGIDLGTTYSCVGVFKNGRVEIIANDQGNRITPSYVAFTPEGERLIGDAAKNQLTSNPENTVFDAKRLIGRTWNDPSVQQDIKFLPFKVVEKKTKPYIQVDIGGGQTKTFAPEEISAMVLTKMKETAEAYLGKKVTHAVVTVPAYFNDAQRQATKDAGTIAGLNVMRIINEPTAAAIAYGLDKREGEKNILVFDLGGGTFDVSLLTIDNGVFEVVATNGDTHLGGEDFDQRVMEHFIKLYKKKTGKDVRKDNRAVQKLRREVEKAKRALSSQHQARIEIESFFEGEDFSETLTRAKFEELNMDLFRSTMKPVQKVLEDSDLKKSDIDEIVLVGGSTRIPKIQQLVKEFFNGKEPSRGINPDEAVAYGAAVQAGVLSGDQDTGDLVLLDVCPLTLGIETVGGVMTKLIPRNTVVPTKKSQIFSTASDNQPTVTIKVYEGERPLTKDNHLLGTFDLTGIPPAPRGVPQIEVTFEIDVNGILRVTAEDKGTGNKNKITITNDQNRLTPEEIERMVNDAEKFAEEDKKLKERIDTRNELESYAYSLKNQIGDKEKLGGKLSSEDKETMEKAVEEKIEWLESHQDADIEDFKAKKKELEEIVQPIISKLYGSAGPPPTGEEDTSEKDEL
In words: MST; as a4, in the presence of ADP.

The target in assay [2] is T1, Recombinant hamster GRP78 protein. The assay can be described thus: MST; as a4, in the presence of AMP.
The target is the same in assay [3]. In words: MST; GRP78 or its variants labelled through the N-terminal His-tag, constant 20 nM; ligand titrated in 2-fold dilutions; 25 °C; MST buffer (10 mM Na-phosphate pH 7.4, 1 mM MgCl2, 3 mM KCl, 150 mM NaCl, 0.05% Tween-20); no nucleotide; for MANF with GRP78 also 0, 1, 100 or 200 uM CaCl2; fit with 1:1 stoichiometry.
For assay [4], the target named is B1. The assay is described as above.

As to B1, the Kd in assay [1] came out at 5690 nM; in assay [2] it was 260 nM; in assay [3] it was 380 nM.

B2: Nucleotide-binding domain (NBD) of GRP78 (domain or fragment)
chain: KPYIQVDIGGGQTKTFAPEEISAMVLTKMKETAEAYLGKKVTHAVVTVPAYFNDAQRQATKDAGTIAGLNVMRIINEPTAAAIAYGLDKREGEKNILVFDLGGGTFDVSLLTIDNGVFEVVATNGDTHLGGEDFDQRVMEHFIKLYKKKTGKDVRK
modifications: RED-tris-NTA dye held on the His-tag
In the case of B2, the Kd in assay [4] was 280 nM.

B3: CH1-derived substrate peptide (HTFPAVL) (peptide)
peptide: HTFPAVL
notes: peptide derived from the CH1 domain of an IgG heavy chain; also called IgG heavy chain-derived peptide; source: synthetic peptide (custom synthesis by Pepscan)
As for B3, the values for the Kd in assay [1] and in assay [3] were 120 nM and 220 nM, respectively.

The values above are taken from PMC7949057, “The cytoprotective protein MANF promotes neuronal survival independently from its role as a GRP78 cofactor” (The Journal of Biological Chemistry, 2021).
